# Measured values published in patent publication EP1073891B1, “METHOD OF PREDICTING RECEPTOR MODULATING ACTIVITY” (Duke University, priority 1998, dated 1999).
# How the values were obtained:
# Assay in all cases: Mammalian two-hybrid, specificity of peptide-nuclear receptor interaction (Example 4.2)
# Format in all cases: cell-based
# Settings in all cases: mammalian two-hybrid (Fig. 8)
# [1] = molecular target: T1, estrogen receptor beta (ERβ-VP16) (Homo sapiens, UniProt Q92731)
# T1 construct: expressed in transfected cells
# T1 sequence (Q92731 whole entry, species assumed): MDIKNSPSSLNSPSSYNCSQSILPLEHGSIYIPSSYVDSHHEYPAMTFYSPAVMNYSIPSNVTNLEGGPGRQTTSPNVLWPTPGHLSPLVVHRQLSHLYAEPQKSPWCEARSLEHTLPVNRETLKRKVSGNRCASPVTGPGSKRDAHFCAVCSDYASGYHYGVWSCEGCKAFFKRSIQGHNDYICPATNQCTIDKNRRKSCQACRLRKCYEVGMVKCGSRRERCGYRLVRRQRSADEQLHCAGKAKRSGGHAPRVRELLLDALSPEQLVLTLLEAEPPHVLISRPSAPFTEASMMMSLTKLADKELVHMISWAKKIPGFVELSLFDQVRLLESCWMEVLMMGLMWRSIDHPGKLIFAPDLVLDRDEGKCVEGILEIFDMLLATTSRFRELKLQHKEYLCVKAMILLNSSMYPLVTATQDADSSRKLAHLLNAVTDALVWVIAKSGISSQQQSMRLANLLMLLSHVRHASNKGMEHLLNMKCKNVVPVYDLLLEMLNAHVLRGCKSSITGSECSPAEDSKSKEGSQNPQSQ
# Source text: (§1) Peptide sequences representing each class was fused to the DNA binding domain (DBD) of the yeast transcription factor Ga14. HepG2 cells were then transiently transfected with expression vectors for ERα-VP16 and the Gal4-peptide fusion proteins. In addition, a luciferase reporter construct under the control of 5 copies of a Ga14 upstream enhancer element was also transfected along with a pCMV-β galactosidase vector to normalize for transfection efficiency. Transfection of the Ga14 DBD alone is included as control. Cells were then induced with various ligands as indicated in the figure and assayed for luciferase activity and β galactosidase activity. Normalized response was obtained by dividing the luciferase activity by the β galactosidase activity.
# (§2) The specificity of peptide-nuclear receptor interaction was analyzed (Fig. 8) using the mammalian two-hybrid system. Experimental design is the same as in figure 2 except that either progesterone receptor (PRB-VP16), estrogen receptor beta (ERβ-VP16), glucocorticoid receptor (GR-VP16) or thyroid receptor beta (TRβ-VP16) was tested.
# [2] = molecular target: T2, progesterone receptor (PRB-VP16) (Homo sapiens, UniProt P06401)
# T2 construct: expressed in transfected cells
# T2 sequence (P06401 1-933): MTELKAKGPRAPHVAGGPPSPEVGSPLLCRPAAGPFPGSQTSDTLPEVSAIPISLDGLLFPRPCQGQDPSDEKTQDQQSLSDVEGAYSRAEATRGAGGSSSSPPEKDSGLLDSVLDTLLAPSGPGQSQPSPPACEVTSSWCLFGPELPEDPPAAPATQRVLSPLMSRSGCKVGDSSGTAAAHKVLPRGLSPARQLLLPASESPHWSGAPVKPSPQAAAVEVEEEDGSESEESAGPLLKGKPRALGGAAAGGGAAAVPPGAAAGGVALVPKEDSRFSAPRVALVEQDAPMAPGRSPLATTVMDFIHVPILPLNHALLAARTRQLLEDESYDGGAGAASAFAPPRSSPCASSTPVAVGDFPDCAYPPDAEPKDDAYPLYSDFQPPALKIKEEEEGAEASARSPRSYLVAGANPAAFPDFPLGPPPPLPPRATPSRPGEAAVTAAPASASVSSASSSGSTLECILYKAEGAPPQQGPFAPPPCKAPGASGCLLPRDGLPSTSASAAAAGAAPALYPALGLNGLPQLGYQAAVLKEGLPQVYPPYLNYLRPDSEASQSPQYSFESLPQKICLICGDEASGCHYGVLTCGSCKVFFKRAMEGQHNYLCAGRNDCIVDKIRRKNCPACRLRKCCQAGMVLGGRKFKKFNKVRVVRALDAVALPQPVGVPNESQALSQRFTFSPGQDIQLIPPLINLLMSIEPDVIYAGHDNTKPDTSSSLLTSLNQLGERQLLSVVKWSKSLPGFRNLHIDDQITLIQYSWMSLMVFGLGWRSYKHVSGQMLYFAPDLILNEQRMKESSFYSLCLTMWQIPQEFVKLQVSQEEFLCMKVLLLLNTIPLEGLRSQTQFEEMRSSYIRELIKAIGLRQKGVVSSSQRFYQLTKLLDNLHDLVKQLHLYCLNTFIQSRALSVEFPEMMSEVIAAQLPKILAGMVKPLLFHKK
# Source text: as §1, §2
# [3] = molecular target: T3, thyroid receptor beta (TRβ-VP16) (Homo sapiens, UniProt P10828)
# T3 construct: expressed in transfected cells
# T3 sequence (P10828 1-461): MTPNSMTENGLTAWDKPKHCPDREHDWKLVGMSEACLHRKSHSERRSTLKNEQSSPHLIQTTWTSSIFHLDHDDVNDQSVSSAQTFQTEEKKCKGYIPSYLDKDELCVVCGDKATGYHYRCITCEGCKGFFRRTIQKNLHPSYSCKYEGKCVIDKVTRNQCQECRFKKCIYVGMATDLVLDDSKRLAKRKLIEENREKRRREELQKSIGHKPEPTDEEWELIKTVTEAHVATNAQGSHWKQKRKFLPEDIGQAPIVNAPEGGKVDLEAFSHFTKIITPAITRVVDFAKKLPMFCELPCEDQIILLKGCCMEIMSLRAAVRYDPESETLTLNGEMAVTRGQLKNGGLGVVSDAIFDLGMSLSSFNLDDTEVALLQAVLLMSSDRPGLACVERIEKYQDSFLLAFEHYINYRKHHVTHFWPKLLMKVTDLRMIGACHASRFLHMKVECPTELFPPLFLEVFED
# Source text: as §1, §2
# [4] = molecular target: T4, glucocorticoid receptor (GR-VP16) (Homo sapiens, UniProt P04150)
# T4 construct: expressed in transfected cells
# T4 sequence (P04150 1-777): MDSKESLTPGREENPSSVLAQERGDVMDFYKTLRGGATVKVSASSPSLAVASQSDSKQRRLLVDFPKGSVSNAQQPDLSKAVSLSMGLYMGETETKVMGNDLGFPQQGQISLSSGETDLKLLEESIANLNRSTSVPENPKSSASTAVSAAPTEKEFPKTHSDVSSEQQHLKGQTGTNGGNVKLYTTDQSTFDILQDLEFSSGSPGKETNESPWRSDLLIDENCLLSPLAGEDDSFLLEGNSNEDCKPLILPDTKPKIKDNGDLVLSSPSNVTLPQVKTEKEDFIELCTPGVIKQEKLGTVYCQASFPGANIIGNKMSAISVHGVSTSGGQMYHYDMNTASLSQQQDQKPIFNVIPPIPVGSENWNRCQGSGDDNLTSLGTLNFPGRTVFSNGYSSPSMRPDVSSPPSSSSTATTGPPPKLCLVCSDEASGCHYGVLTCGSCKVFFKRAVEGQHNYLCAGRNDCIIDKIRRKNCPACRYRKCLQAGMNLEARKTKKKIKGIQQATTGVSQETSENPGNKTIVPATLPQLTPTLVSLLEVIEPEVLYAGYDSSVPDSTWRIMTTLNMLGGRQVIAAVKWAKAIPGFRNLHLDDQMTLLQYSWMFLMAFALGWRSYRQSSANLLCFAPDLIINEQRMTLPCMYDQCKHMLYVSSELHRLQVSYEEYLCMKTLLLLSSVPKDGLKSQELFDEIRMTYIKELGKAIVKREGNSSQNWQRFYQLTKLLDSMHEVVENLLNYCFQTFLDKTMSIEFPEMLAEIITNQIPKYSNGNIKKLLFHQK
# Source text: as §1, §2
sequence,measurement,setting,value
SSLTSRDFGSWYASR [α II],interaction with ERβ,[1],None of the receptors tested interact significantly
same,interaction with PRB,[2],None of the receptors tested interact significantly
same,interaction with TRβ,[3],None of the receptors tested interact significantly
same,interaction with GR,[4],None of the receptors tested interact significantly
SSNHQSSRLIELLSR [α/β I],interaction with ERβ,[1],interact with the αβ I peptide in the presence of the appropriate agonist
same,interaction with PRB,[2],interact with the αβ I peptide in the presence of the appropriate agonist
same,interaction with TRβ,[3],interact with the αβ I peptide in the presence of the appropriate agonist
same,interaction with GR,[4],interact with the αβ I peptide in the presence of the appropriate agonist
SSPGSREWFKDMLSR [α/β V],interaction with ERβ,[1],bound ERβ only in the presence of tamoxifen
same,interaction with PRB,[2],able to associate with PRB in the presence of the PR antagonists RU 486 and ZK 98299
SSWDMHQFFWEGVSR [α/β III],interaction with ERβ,[1],None of the receptors tested interact significantly
same,interaction with PRB,[2],None of the receptors tested interact significantly
same,interaction with TRβ,[3],None of the receptors tested interact significantly
same,interaction with GR,[4],None of the receptors tested interact significantly
